{
  "source": "FireProtDB",
  "conditions": "whole UniProt chain shown",
  "key": {"[1]": {"conditions": "Sus scrofa, pH 6.5, Thermal, DSC, Sodium phosphate 5 mM, reversible: yes"}, "[2]": {"conditions": "Thermus thermophilus, pH 7, Thermal, Fluorescence, potassium phosphate 50 mM, DTT 1 mM, reversible: yes"}, "[3]": {"conditions": "Sulfolobus acidocaldarius (strain ATCC 33909 / DSM 639 / JCM 8929 / NBRC 15157 / NCIMB 11770), pH 7, Thermal, DSC, Acetate 10 mM, reversible: Yes"}, "[4]": {"conditions": "Sulfolobus acidocaldarius (strain ATCC 33909 / DSM 639 / JCM 8929 / NBRC 15157 / NCIMB 11770), pH 7, Thermal, DSC, Unknown, reversible: yes"}, "[5]": {"conditions": "Thermotoga maritima (strain ATCC 43589 / DSM 3109 / JCM 10099 / NBRC 100826 / MSB8), pH 7.4, 25 °C, GdnHCl, CD, sodium phosphate, transition: 2, reversible: yes"}},
  "note": "Several values for one entry are separate records, joined by “and”; a condition that tells them apart may be missing. Equal entries are not always repeated.",
  "data": [
    {"protein": "Gastricsin wild type, P30879 (protein) SVIKVPLKKLKSIRQAMKEKGLLEEFLKTHKYDPAQRYRIGDISVALEPMAYLEAAYFGEISIGTPPQNFLVL", "values": [
      {"measurement": "Tm", "setting": "[1]", "value": 64.5, "unit": "°C"},
      {"measurement": "heat capacity change of unfolding", "setting": "[1]", "value": 6.1, "unit": "kcal/mol/K"},
      {"measurement": "unfolding enthalpy (calorimetric)", "setting": "[1]", "value": 256, "unit": "kcal/mol"},
      {"measurement": "unfolding enthalpy (van 't Hoff)", "setting": "[1]", "value": 131, "unit": "kcal/mol"}
    ]},
    {"protein": "Malate dehydrogenase, cytoplasmic wild type, P11708 (protein) MSEPIRVLVTGAAGQIAYSLLYSIGNGSVFGKDQPIILVLLDITPMMGVLDGVLMELQDCALPLLKDVIATDKEEIAFKDLDVAILVGSMPRRDGMERKDLLKANVKIFKCQGAALDKYAKKSVKVIVVGNPANTNCLTASKSAPSIPKENFSCLTRLDHNRAKAQIALKLGVTSDDVKNVIIWGNHSSTQYPDVNHAKVKLQAKEVGVYEAVKDDSWLKGEFITTVQQRGAAVIKARKLSSAMSAAKAICDHVRDIWFGTPEGEFVSMGIISDGNSYGVPDDLLYSFPVTIKDKTWKIVEGLPINDFSREKMDLTAKELAEEKETAFEFLSSA", "values": [
      {"measurement": "unfolding free energy", "setting": "Sus scrofa, pH 7.5, 25 °C, GdnHCl, Fluorescence, TEA 50 mM, MgCl2 20 mM, transition: 3", "value": "5.9 kcal/mol and 6.4 kcal/mol"}
    ]},
    {"protein": "3-isopropylmalate dehydrogenase wild type, P61495 (protein) MKVAVLPGDGIGPEVTEAALKVLRALDEAEGLGLAYEVFPFGGAAIDAFGEPFPEPTRKGVEEAEAVLLGSVGGPKWDGLPRKISPETGLLSLRKSQDLFANLRPAKVFPGLERLSPLKEEIARGVDVLIVRELTGGIYFGEPRGMSEAEAWNTERYSKPEVERVARVAFEAARKRRKHVVSVDKANVLEVGEFWRKTVEEVGRGYPDVALEHQYVDAAAMHLVRSPARFDVVVTGNIFGDILSDLASVLPGSLGLLPSASLGRGTPVFEPVHGSAPDIAGKGIANPTAAILSAAMMLEHAFGLVELARKVEDAVAKALLETPPPDLGGSAGTEAFTATVLRHLA", "values": [
      {"measurement": "denaturant m value", "setting": "Thermus thermophilus, pH 7, 27 °C, Urea, Fluorescence, Potassium phosphate 50 mM, transition: 3, reversible: yes", "value": "1.2 kcal/mol/M and 1.41 kcal/mol/M"},
      {"measurement": "Tm", "setting": "Thermus thermophilus, pH 7, Thermal, CD, phosphate 20 mM", "value": 87, "unit": "°C"},
      {"measurement": "Tm", "setting": "Thermus thermophilus, pH 7, Thermal, CD, sodium phosphate, ammonium sulfate 1.0-1.5 M", "value": 87, "unit": "°C"},
      {"measurement": "Tm", "setting": "[2]", "value": 30.9, "unit": "°C"},
      {"measurement": "heat capacity change of unfolding", "setting": "[2]", "value": 1.73, "unit": "kcal/mol/K"},
      {"measurement": "unfolding enthalpy (van 't Hoff)", "setting": "[2]", "value": 15.8, "unit": "kcal/mol"},
      {"measurement": "Tm", "setting": "Thermus thermophilus, pH 7.6, Thermal, Activity, potassium phosphate 20 mM, reversible: No", "value": 84.7, "unit": "°C"},
      {"measurement": "Tm", "setting": "Thermus thermophilus, pH 7.6, Thermal, CD, phosphate 20 mM, reversible: No", "value": 87.4, "unit": "°C"},
      {"measurement": "Tm", "setting": "Thermus thermophilus, pH 10.4, Thermal, CD, NaHCO3 20 mM", "value": 87, "unit": "°C"}
    ]},
    {"protein": "DNA-binding protein 7d wild type, P13123 (protein) MVKVKFKYKGEEKEVDTSKIKKVWRVGKMVSFTYDDNGKTGRGAVSEKDAPKELLDMLARAEREKK", "values": [
      {"measurement": "Tm", "setting": "Sulfolobus acidocaldarius (strain ATCC 33909 / DSM 639 / JCM 8929 / NBRC 15157 / NCIMB 11770), pH 4, Thermal, DSC, Potassium acetate 0.05 M, KCl 0.3 M, reversible: yes", "value": 86.8, "unit": "°C"},
      {"measurement": "Tm", "setting": "Sulfolobus acidocaldarius (strain ATCC 33909 / DSM 639 / JCM 8929 / NBRC 15157 / NCIMB 11770), pH 6, Thermal, DSC, KH2PO4 0.01 M, KCl 0.1 M, reversible: yes", "value": 99.4, "unit": "°C"},
      {"measurement": "Tm", "setting": "[3]", "value": 90.7, "unit": "°C"},
      {"measurement": "heat capacity change of unfolding", "setting": "[3]", "value": 0.71, "unit": "kcal/mol/K"},
      {"measurement": "unfolding enthalpy (calorimetric)", "setting": "[3]", "value": 58.5, "unit": "kcal/mol"},
      {"measurement": "Tm", "setting": "[4]", "value": 90.7, "unit": "°C"},
      {"measurement": "heat capacity change of unfolding", "setting": "[4]", "value": 0.71, "unit": "kcal/mol/K"},
      {"measurement": "unfolding enthalpy (calorimetric)", "setting": "[4]", "value": 58.5, "unit": "kcal/mol"}
    ]},
    {"protein": "wild type, Q9WZ62 (protein) MKKLLAVSILLVSIVIFSGAIDEIKSRGYLLVGLSADFPPFEFVDENGNIVGFDVDLAKEIARRLGVELKIVDMTFDGLIPSLLTKKIDVIISGMTITEERKKVVAFSDPYFDAGQVIVVRKDSDFRPKTYEDLVGKTVAVQIGTTGDIEVSKYDGIKVVRFDKFTDAFLELKRGRADAVVLDSATARAFVAKNPDLVISSGVLSSEQYGIAVRKEDTDLLEFINSVLRELKKSPYDVLIEKWFSE", "values": [
      {"measurement": "denaturant m value", "setting": "[5]", "value": "2.63 kcal/mol/M and 2.86 kcal/mol/M"},
      {"measurement": "denaturant midpoint (higher = more stable)", "setting": "[5]", "value": "5 M and 4.5 M"},
      {"measurement": "unfolding free energy", "setting": "[5]", "value": "12.9 kcal/mol and 13.1 kcal/mol"}
    ]},
    {"protein": "Tryptophan synthase alpha chain wild type, P00929 (protein) MERYENLFAQLNDRREGAFVPFVTLGDPGIEQSLKIIDTLIDAGADALELGVPFSDPLADGPTIQNANLRAFAAGVTPAQCFEMLALIREKHPTIPIGLLMYANLVFNNGIDAFYARCEQVGVDSVLVADVPVEESAPFRQAALRHNIAPIFICPPNADDDLLRQVASYGRGYTYLLSRSGVTGAENRGALPLHHLIEKLKEYHAAPALQGFGISSPEQVSAAVRAGAAGAISGSAIVKIIEKNLASPKQMLAELRSFVSAMKAASRA", "values": [
      {"measurement": "unfolding free energy", "setting": "Salmonella typhimurium (strain LT2 / SGSC1412 / ATCC 700720), pH 7, 25 °C, GdnHCl, CD, Potassium phosphate 0.01 M, reversible: yes", "value": 9.7, "unit": "kcal/mol"},
      {"measurement": "Tm", "setting": "Salmonella typhimurium (strain LT2 / SGSC1412 / ATCC 700720), pH 7.8, Thermal, Enzyme activity, sodium N/N-bis(2-hydroxyethyl)glycine 0.05 M", "value": 46, "unit": "°C"},
      {"measurement": "Tm", "setting": "Salmonella typhimurium (strain LT2 / SGSC1412 / ATCC 700720), pH 9, Thermal, DSC, Sodium tetraborate 1 mM, reversible: yes(>70%)", "value": 47.6, "unit": "°C"}
    ]},
    {"protein": "Subtilisin inhibitor wild type, P01006 (protein) MRNTGAGPSPSVSRPPPSAAPLSGAALAAPGDAPSALYAPSALVLTVGKGVSATTAAPERAVTLTCAPGPSGTHPAAGSACADLAAVGGDLNALTRGEDVMCPMVYDPVLLTVDGVWQGKRVSYERVFSNECEMNAHGSSVFAF", "values": [
      {"measurement": "Tm", "setting": "Streptomyces albogriseolus, pH 2.45, Thermal, CD, glycine 25 mM, reversible: yes", "value": 21.6, "unit": "°C"},
      {"measurement": "Tm", "setting": "Streptomyces albogriseolus, pH 2.72, Thermal, CD, glycine 25 mM, reversible: yes", "value": 31.6, "unit": "°C"},
      {"measurement": "Tm", "setting": "Streptomyces albogriseolus, pH 2.87, Thermal, CD, glycine 25 mM, reversible: yes", "value": 35.7, "unit": "°C"},
      {"measurement": "unfolding free energy", "setting": "Streptomyces albogriseolus, pH 3.21, 20 °C, Thermal, CD, glycine 25 mM, reversible: yes", "value": 4.07, "unit": "kcal/mol"},
      {"measurement": "Tm", "setting": "Streptomyces albogriseolus, pH 3.21, Thermal, CD, glycine 25 mM, reversible: yes", "value": 45.8, "unit": "°C"}
    ]}
  ]
}
